Sequences and labels used below:
B3: 6 × His-Hal3^PD (domain or fragment, S. cerevisiae, UniProt P36024 256-495, looked up)
chain: RLPQDDGKLHVLFGATGSLSVFKIKPMIKKLEEIYGRDRISIQVILTQSATQFFEQRYTKKIIKSSEKLNKMSQYESTPATPVTPTPGQCNMAQVVELPPHIQLWTDQDEWDAWKQRTDPVLHIELRRWADILVVAPLTANTLSKIALGLCDNLLTSVIRAWNPSYPILLAPSMVSSTFNSMMTKKQLQTIKEEMSWVTVFKPSEKVMDINGDIGLGGMMDWNEIVNKIVMKLGGYPKNN
notes: Hal3 (Sis2), S. cerevisiae, PPCDC domain (PD); expected MW with tag 29.1 kDa; also called PPCDC domain of Hal3; source: E. coli BL21 (DE3), purified (Ni2+ IMAC); alone from pET28 or co-expressed with Cab3^PD (pETDuet-1); not shown: His6, N-terminal, kept
B4: 6 × His-Vhs3^PD (domain or fragment, S. cerevisiae, UniProt Q08438 288-577, looked up)
chain: DDGKLHVLFGATGSLSVFKLKHMIRKLEEIYGRDKICIQVILTNSATKFFAMKYMRKNKKQHNSIDTSFNSTNSNAGNITGNKKKVASLEKFSIQKTSSNSAASQTNNKQEEEKQMASTTGFPSTLGGSRTYSNSSNVVSQHPQIELPAHIQFWTDQDEWDVWRQRTDPVLHIELRRWADILVVAPLTANTLAKIALGLCDNLLTSVIRAWNPTFPIFLAPSMGSGTFNSIMTKKHFRIIQEEMPWVTVFKPSEKVMGINGDIGLSGMMDANEIVGKIVVKLGGYPDVSA
notes: Vhs3, S. cerevisiae, PPCDC domain (PD), residues 288–577; Expected MW with tag 34.5 kDa; also called PPCDC domain of Vhs3; source: E. coli BL21 (DE3), purified (Ni2+ IMAC); alone from pET28a or co-expressed with Cab3^PD (pETDuet-1); not shown: His6, N-terminal, kept

The target in one data set is T1, GST-Ppz1^Cter (S. cerevisiae, UniProt P26570 345-692).
T1 construct: Ser/Thr protein phosphatase Ppz1, S. cerevisiae, carboxyl terminal domain, Ppz1 (Δ1–344), expressed from pGEX6P1-Ppz1^Cter; also called Ppz1 (Δ1–344); Ppz1 carboxyl terminal domain
T1 sequence (looked up): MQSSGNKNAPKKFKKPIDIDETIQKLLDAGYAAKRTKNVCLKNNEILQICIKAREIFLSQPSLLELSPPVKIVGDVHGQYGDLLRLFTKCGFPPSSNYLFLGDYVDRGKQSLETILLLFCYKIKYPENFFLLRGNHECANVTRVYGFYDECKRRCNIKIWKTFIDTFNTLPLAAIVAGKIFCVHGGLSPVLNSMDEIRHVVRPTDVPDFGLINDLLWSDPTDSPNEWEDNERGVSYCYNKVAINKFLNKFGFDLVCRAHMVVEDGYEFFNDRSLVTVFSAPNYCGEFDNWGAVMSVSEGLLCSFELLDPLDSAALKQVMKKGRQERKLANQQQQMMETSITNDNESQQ
Briefly: pull-down; GST-Ppz1^Cter (~6 μg) bound to glutathione agarose beads, incubated with increasing amounts of Hal3 (0.5-fold to 6-fold excess) for 1 h at 24 °C; washed with 50 mM Tris-HCl pH 7.5, 150 mM NaCl, 10% glycerol, 2 mM DTT; SDS-PAGE, Coomassie, densitometry. The conditions noted are these: both partners purified.

The target of a further data set is T2, 6 × His-Ppz1^Cter (S. cerevisiae, UniProt P26570 345-692).
T2 construct: Ser/Thr protein phosphatase Ppz1, S. cerevisiae, carboxyl terminal domain (Ppz1^Cter, Δ1–344), first MCS of pETDuet-1; also called N-terminally 6 × His-tagged version of Ppz1^Cter; source: E. coli BL21 (DE3), co-expressed with Hal3 from pETDuet-1; purified as the complex (Ni2+ IMAC, SEC); not shown: His6, N-terminal, kept
T2 sequence (looked up): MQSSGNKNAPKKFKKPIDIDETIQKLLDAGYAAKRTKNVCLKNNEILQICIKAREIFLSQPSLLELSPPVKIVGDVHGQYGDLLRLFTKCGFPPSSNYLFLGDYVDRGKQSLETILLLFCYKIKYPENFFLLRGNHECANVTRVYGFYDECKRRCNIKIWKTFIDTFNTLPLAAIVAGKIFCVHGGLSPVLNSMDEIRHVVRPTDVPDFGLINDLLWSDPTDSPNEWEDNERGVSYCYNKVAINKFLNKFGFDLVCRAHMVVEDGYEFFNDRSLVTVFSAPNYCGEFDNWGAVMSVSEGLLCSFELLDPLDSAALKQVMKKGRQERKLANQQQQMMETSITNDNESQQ
As to the kind of experiment: SEC; IMAC-purified Ppz1^Cter–Hal3 complex on Superdex 200 HR 10/30, 50 mM Tris-HCl pH 7.5, 270 mM NaCl, 2 mM DTT, 2 mM EDTA; fractions analysed by SDS-PAGE and densitometry. The conditions noted are these: both partners purified.

Data set [1] concerns the molecule itself. As to the kind of experiment: cross-linking; purified PD protein treated with disuccinimydyl suberate (DSS) at 37 °C (15 min Hal3^PD, 40 min Vhs3^PD), SDS-PAGE on 8% gels.
Data set [2] concerns the molecule itself. As to the kind of experiment: SEC; purified PD proteins and co-purified mixtures on Superose 12, 50 mM phosphate pH 7.0, 150 mM NaCl, 0.4 mL/min.
The target in the data set “6 × His-Hal3^PD” is B3. As to the kind of experiment: co-purification by Ni2+ IMAC after co-expression; untagged Cab3^PD co-expressed in E. coli with 6 × His-tagged Hal3^PD and/or Vhs3^PD (binary and ternary mixtures); Ni2+ IMAC, SDS-PAGE and densitometry. The settings on record: partners not purified.
The data set “6 × His-Vhs3^PD” addresses B4. The data set is described as above. The conditions noted are these: partners not purified.

“And” between values parts separate entries of the source, which are not always exact repeats. Equal values may be shown once.

B1: Hal3 (full length, obtained from GST-Hal3 by PreScission protease treatment) (natural protein, S. cerevisiae, UniProt P36024 1-562, looked up)
chain: MTAVASTSGKQDADHNQSIECPRFSRGQKEILLDHEDAKGKDSIINSPVSGRQSISPTLSNATTTTTKSIMNATGTSGAVVSNTPEPGLKRVPAVTFSDLKQQQKQDSLTQLKNDSERTKSPNSNPAPVSNSIPGNHAVIPNHTNTSRTTQLSGSPLVNEMKDYDPKKKDSALKIVDTMKPDKIMATSTPISRENNKVTAKAPTSITLRKEDAQDQANNVSGQINVRSTPEETPVKQSVIPSIIPKRENSKNLDPRLPQDDGKLHVLFGATGSLSVFKIKPMIKKLEEIYGRDRISIQVILTQSATQFFEQRYTKKIIKSSEKLNKMSQYESTPATPVTPTPGQCNMAQVVELPPHIQLWTDQDEWDAWKQRTDPVLHIELRRWADILVVAPLTANTLSKIALGLCDNLLTSVIRAWNPSYPILLAPSMVSSTFNSMMTKKQLQTIKEEMSWVTVFKPSEKVMDINGDIGLGGMMDWNEIVNKIVMKLGGYPKNNEEEDDDEDEEEDDDEEEDTEDKNENNNDDDDDDDDDDDDDDDDDDDDDDDDEDEDEAETPGIIDKHQ
notes: Hal3 (Sis2), S. cerevisiae, the entire protein, expressed from pGEX6P1-Hal3; also called Sis2; recombinant Hal3; source: E. coli BL21 (DE3), GST-Hal3 purified and digested with PreScission protease
With B1, the “maximal ratio of bound Hal3 to GST-Ppz1^Cter” value in the data set with GST-Ppz1^Cter is about 0.5.

B2: Hal3 (untagged, entire, co-expressed from pETDuet-1) (natural protein, S. cerevisiae, UniProt P36024 1-562, looked up)
chain: MTAVASTSGKQDADHNQSIECPRFSRGQKEILLDHEDAKGKDSIINSPVSGRQSISPTLSNATTTTTKSIMNATGTSGAVVSNTPEPGLKRVPAVTFSDLKQQQKQDSLTQLKNDSERTKSPNSNPAPVSNSIPGNHAVIPNHTNTSRTTQLSGSPLVNEMKDYDPKKKDSALKIVDTMKPDKIMATSTPISRENNKVTAKAPTSITLRKEDAQDQANNVSGQINVRSTPEETPVKQSVIPSIIPKRENSKNLDPRLPQDDGKLHVLFGATGSLSVFKIKPMIKKLEEIYGRDRISIQVILTQSATQFFEQRYTKKIIKSSEKLNKMSQYESTPATPVTPTPGQCNMAQVVELPPHIQLWTDQDEWDAWKQRTDPVLHIELRRWADILVVAPLTANTLSKIALGLCDNLLTSVIRAWNPSYPILLAPSMVSSTFNSMMTKKQLQTIKEEMSWVTVFKPSEKVMDINGDIGLGGMMDWNEIVNKIVMKLGGYPKNNEEEDDDEDEEEDDDEEEDTEDKNENNNDDDDDDDDDDDDDDDDDDDDDDDDEDEDEAETPGIIDKHQ
notes: Hal3 (Sis2), S. cerevisiae, the entire Hal3, second MCS of pETDuet-1; also called Sis2; untagged version of Hal3; source: E. coli BL21 (DE3), co-expressed with 6 × His-Ppz1^Cter from pETDuet-1; purified as the complex (Ni2+ IMAC, SEC)
Turning to B2, the “stoichiometry N” value in the data set with 6 × His-Ppz1^Cter is about 1.

For the molecule B3, the “stoichiometry N” value in data set [1] was 3; in data set [2] it was 6 and 12.

On to B4, for which the “stoichiometry N” value in data set [1] turned out to be 3.

B5: Cab3^PD (untagged) (domain or fragment, S. cerevisiae, UniProt P36076 305-508, looked up)
chain: DDKKFHILIGATGSVATIKVPLIIDKLFKIYGPEKISIQLIVTKPAEHFLKGLKMSTHVKIWREEDAWVFDAVNKNDTSLSLNLILHHELRKWADIFLIAPLSANTLAKLANGICNNLLTSVMRDWSPLTPVLIAPAMNTFMYINPMTKKHLTSLVQDYPFIQVLKPVEKVLICGDIGMGGMREWTDIVEIVRRRINEIRKARD
notes: Cab3 (previously Ykl088w), S. cerevisiae, PPCDC domain (PD), residues 305–508; Expected MW 23.3 kDa; could not be made on its own; also called PPCDC domain of Cab3; Ykl088w PD; source: E. coli BL21 (DE3), co-expressed from the second MCS of pETDuet-1 with 6 × His-Hal3^PD and/or 6 × His-Vhs3^PD; co-purified (Ni2+ IMAC)
As to B5, in the data set with 6 × His-Hal3^PD, the “ratio of Hal3^PD to Cab3^PD in the co-purified binary mixture” value was at least 2 fold and the “ratio of Hal3^PD to Cab3^PD in the co-purified ternary mixture” value is about 2. For the same molecule, in the data set with 6 × His-Vhs3^PD, the “ratio of Vhs3^PD to Cab3^PD in the co-purified binary mixture” value is at least 2 fold and the “ratio of Vhs3^PD to Cab3^PD in the co-purified ternary mixture” value was about 1.
